US20230087378A1 (UCB, published 2023)
Changes are numbered by the printed parent chain. Several values for one entry are separate records, joined by “and”; a condition that tells them apart may be missing. Identical values can stand only once.

How the values were obtained:
[1] = biological target: mixture of human IL-17A, IL-13 and albumin (human); experiment: SPR, response of the human mixture against the sum of the single-analyte responses
[2] = biological target: mixture of cynomolgus IL-17A, IL-13 and albumin (cynomolgus); experiment: SPR, response of the cynomolgus mixture against the sum of the single-analyte responses
Human IL-17A [3] = biological target: T1, Human IL-17A (human, UniProt Q16552 24-155); experiment: SPR (Biacore T200), antibody captured on anti-human F(ab')2, human IL-17A as analyte, 25 C, 1:1 model
Method: (§1) A goat anti-human IgG, F(ab′)₂ fragment specific antibody (Jackson ImmunoResearch) was immobilised on a CM5 Sensor Chip via amine coupling chemistry to a level of approximately 5000 RU. […] At the end of each cycle the surface was regenerated at a flowrate of 10 μl/min using a 60 s injection of 50 mM HCl followed by a 30 s injection of 5 mM NaOH and a final 60 s injection of 50 mM HCl. […] Buffer blank injections were included to subtract instrument noise and drift.
(§2) Kinetic parameters were determined using a 1:1 binding model using Biacore T200 Evaluation software (version 3.0).

Human IL-13 [4] = biological target: T2, Human IL-13 (human, UniProt P35225 35-146); experiment: cell-based or functional assay
Human IL-17F [5] = biological target: T3, Human IL-17F (human, UniProt Q96PD4 31-163); experiment: cell-based or functional assay
T3 sequence (looked up): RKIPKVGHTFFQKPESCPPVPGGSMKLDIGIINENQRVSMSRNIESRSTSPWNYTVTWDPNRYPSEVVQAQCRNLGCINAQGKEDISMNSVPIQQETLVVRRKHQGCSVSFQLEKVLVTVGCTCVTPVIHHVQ

Human IL-13 [6] = biological target: T2, Human IL-13; experiment: cell-based or functional assay; remark: listed apart in the source
Human IL-17A [7] = biological target: T1, Human IL-17A; experiment: cell-based or functional assay
[8] = biological target: mixture of cynomolgus IL-17A, IL-13 and albumin (cynomolgus); experiment: SPR, response of the cynomolgus mixture against the sum of the single-analyte responses, mean of n = 3
[9] = biological target: mixture of human IL-17A, IL-13 and albumin (human); experiment: SPR, mixture of human IL-13, IL-17A and albumin injected together over captured antibody
Human IL-17F [10] = biological target: T3, Human IL-17F; experiment: SPR (Biacore T200), antibody captured on anti-human F(ab')2, human IL-17F as analyte, 25 C, 1:1 model
Method: as §1, §2

[11] = biological target: mixture of human IL-17A, IL-13 and albumin (human); experiment: SPR, response of the human mixture against the sum of the single-analyte responses, mean of n = 3
[12] = biological target: mixture of cynomolgus IL-17A, IL-13 and albumin (cynomolgus); experiment: SPR, mixture of cynomolgus IL-13, IL-17A and albumin injected together over captured antibody
Human IL-17F [13] = biological target: T3, Human IL-17F; experiment: cell-based or functional assay; remark: listed apart in the source
Cyno IL-17A [14] = biological target: T4, Cyno IL-17A (cynomolgus, UniProt A0A2K5TTB0 24-155); experiment: cell-based or functional assay
Cyno IL-17F [15] = biological target: T5, Cyno IL-17F (cynomolgus, UniProt G7P4V0 31-163); experiment: cell-based or functional assay
T5 sequence: T3 sequence (looked up) with G22E, I29T, R73K, N74H, V100L, I129V

Human IL-17A [16] = biological target: T1, Human IL-17A; experiment: cell-based or functional assay; remark: listed apart in the source
Human IL-13 [17] = biological target: T2, Human IL-13; experiment: SPR (Biacore T200), antibody captured on anti-human F(ab')2, human IL-13 as analyte, 25 C, 1:1 model
Method: as §1, §2

Human IL-17F [18] = biological target: T3, Human IL-17F; experiment: SPR (Biacore T200), antibody captured on anti-human F(ab')2, analyte in solution, 25 C, 1:1 model
Excerpt: (§3) A goat anti-human IgG, F(ab′)₂ fragment specific antibody (Jackson ImmunoResearch) was immobilised on a CM5 Sensor Chip via amine coupling chemistry to a level of approximately 5000 RU. […] Buffer blank injections were included to subtract instrument noise and drift.

Human IL-17AF = biological target: T6, Human IL-17AF (human, UniProt Q16552 24-155; Q96PD4 31-163); experiment: as above
T6 construct: also called IL-17A/F heterodimer
Excerpt: as §3

Human IL-13 [19] = biological target: T2, Human IL-13; experiment: as above
Excerpt: as §3

Cyno albumin = biological target: T7, Cyno albumin (cynomolgus, UniProt A2V9Z4 25-608); experiment: as above
T7 construct: also called Cynomolgus albumin
Excerpt: as §3

Human albumin = biological target: T8, Human albumin (human, UniProt P02768 25-609); experiment: as above
T8 construct: also called human serum albumin
Excerpt: as §3

Cyno IL-17A [20] = biological target: T4, Cyno IL-17A; experiment: as above
Excerpt: as §3

Cyno IL-17F [21] = biological target: T5, Cyno IL-17F; experiment: as above
Excerpt: as §3

Cyno IL-17AF = biological target: T9, Cyno IL-17AF (cynomolgus, UniProt A0A2K5TTB0 24-155; G7P4V0 31-163); experiment: as above
T9 construct: also called Cynomolgus IL-17AF
Excerpt: as §3

Human IL-17A [22] = biological target: T1, Human IL-17A; experiment: as above
Excerpt: as §3

Cyno IL-13 = biological target: T10, Cyno IL-13 (cynomolgus, UniProt Q0PW92 21-132); experiment: as above
T10 construct: also called Cynomolgus IL-13
Excerpt: as §3

B1: IL-13/IL-17AF multi-specific antibody (bispecific antibody)
heavy: EVQLVESGGGLVQPGGSLRLSCAASGFTFSDYNMAWVRQAPGKGLEWVATITYEGRNTYYRDSVKGRFTISRDNAKNSLYLQMNSLRAEDTAVYYCASPPQYYEGSIYRLWFAHWGQGTLVTVSSASTKGPSVFPLAPSSKSTSGGTAALGCLVKDYFPEPVTVSWNSGALTSGVHTFPAVLQSSGLYSLSSVVTVPSSSLGTQTYICNVNHKPSNTKVDKKVEPKSCSGGGGTGGGGSEVQLLESGGGLVQPGGSLRLSCAVSGIDLSNYAINWVRQAPGKCLEWIGIIWASGTTFYATWAKGRFTISRDNSKNTVYLQMNSLRAEDTAVYYCARTVPGYSTAPYFDLWGQGTLVTVSSGGGGSGGGGSGGGGSGGGGSDIQMTQSPSSVSASVGDRVTITCQSSPSVWSNFLSWYQQKPGKAPKLLIYEASKLTSGVPSRFSGSGSGTDFTLTISSLQPEDFATYYCGGGYSSISDTTFGCGTKVEIKRT
light: AIQLTQSPSSLSASVGDRVTITCRADESVRTLMHWYQQKPGKAPKLLIYLVSNSEIGVPDRFSGSGSGTDFRLTISSLQPEDFATYYCQQTWSDPWTFGQGTKVEIKRTVAAPSVFIFPPSDEQLKSGTASVVCLLNNFYPREAKVQWKVDNALQSGNSQESVTEQDSKDSTYSLSSTLTLSKADYEKHKVYACEVTHQGLSSPVTKSFNRGECSGGGGSGGGGSEVQLVQSGAEVKKPGSSVKVSCKASGYSFTSYYIHWVRQAPGQCLEWMGRIGPGSGDINYNEKFKGRATFTVDKSTSTAYMELSSLRSEDTAVYYCARFHYDGADWGQGTLVTVSSGGGGSGGGGSGGGGSGGGGSDIQMTQSPSSLSASVGDRVTITCKASQNINENLDWYQQKPGKAPKLLIYYTDILQTGIPSRFSGSGSGTDYTLTISSLQPEDFATYYCYQYYSGYTFGCGTKLEIKRT
notes: also called UCBXXXX; IL-17AF-IL-13 multi-specific antibody
Work on B1 yielded a Binding of Mixture as a Percentage of Individual Binding Responses (%), n = 1 [1] of 100%, a Binding of Mixture as a Percentage of Individual Binding Responses (%), n = 2 [1] of 100% and a Binding of Mixture as a Percentage of Individual Binding Responses (%), n = 3 [1] of 100%. It also gave a Binding of Mixture as a Percentage of Individual Binding Responses (%), n = 1 [2] of 97%, a Binding of Mixture as a Percentage of Individual Binding Responses (%), n = 2 [2] of 96% and a Binding of Mixture as a Percentage of Individual Binding Responses (%), n = 3 [2] of 97%. The Kd (Human IL-17A [3]) was 0.0082 nM, the koff (Human IL-17A [3]) was 3.45e-05 s⁻¹ and the kon (Human IL-17A [3]) was 3.2e+06 M⁻¹ s⁻¹. The “IC50 for inhibition of STAT6 signalling (HEK 293 Human IL4/IL-13 SEAP reporter cells)” value (Human IL-13 [4]) was 4.12 pM and 0.412 ng/ml, the “inhibition of CXCL1 release from NHEK treated with a mixture of IL-13, IL-17A and IL-17F” value (shortened to “inhibition of CXCL1 release”) (Human IL-17F [5]) was 81.3% and the “inhibition of CXCL1 release” value (Human IL-13 [6]) was 81.3%. The “inhibition of CXCL1 release” value (Human IL-17A [7]) was 81.3%, the Binding of Mixture as a Percentage of Individual Binding Responses (%), Mean [8] was 97% and the Binding, n = 1 (RU) [9] was 81 RU. It also gave a Binding, n = 2 (RU) [9] of 131 RU, a Binding, n = 3 (RU) [9] of 129 RU and a Kd (Human IL-17F [10]) of 0.0821 nM. It also gave a koff (Human IL-17F [10]) of 0.000219 s⁻¹, a kon (Human IL-17F [10]) of 2.66e+06 M⁻¹ s⁻¹ and a Binding of Mixture as a Percentage of Individual Binding Responses (%), Mean [11] of 100%. For the same binder, the Binding, n = 1 (RU) [12] was 146 RU, the Binding, n = 2 (RU) [12] was 141 RU and the Binding, n = 3 (RU) [12] was 145 RU. For the same binder, the “IC50, inhibition of IL-6 release from nHDF stimulated with IL-17F and TNF-α” value (Human IL-17F [13]) was 28 nM, the “IC50, inhibition of IL-6 release from nHDF stimulated with IL-17A and TNF-α” value (Cyno IL-17A [14]) was 0.049 nM and the “IC50, inhibition of IL-6 release from nHDF stimulated with IL-17F and TNF-α” value (Cyno IL-17F [15]) was 34.3 nM. For the same binder, the “IC50, inhibition of IL-6 release from nHDF stimulated with IL-17A and TNF-α” value (Human IL-17A [16]) was 0.042 nM, the Kd (Human IL-13 [17]) was 0.0258 nM and the koff (Human IL-13 [17]) was 0.000111 s⁻¹. The kon (Human IL-13 [17]) was 3.61e+06 M⁻¹ s⁻¹, the Kd (Human IL-17F [18]) was 0.128 nM and the koff (Human IL-17F [18]) was 0.000198 s⁻¹. It also gave a kon (Human IL-17F [18]) of 1.67e+06 M⁻¹ s⁻¹, a Kd (Human IL-17AF) of 0.015 nM and a koff (Human IL-17AF) of 4.54e-05 s⁻¹. It also gave a kon (Human IL-17AF) of 3.7e+06 M⁻¹ s⁻¹, a Kd (Human IL-13 [19]) of 0.026 nM and a koff (Human IL-13 [19]) of 3.84e-05 s⁻¹. For the same binder, the kon (Human IL-13 [19]) was 1.46e+06 M⁻¹ s⁻¹, the Kd (Cyno albumin) was 2.47 nM and the koff (Cyno albumin) was 0.000204 s⁻¹. The kon (Cyno albumin) was 81800 M⁻¹ s⁻¹, the Kd (Human albumin) was 2.51 nM and the koff (Human albumin) was 0.000154 s⁻¹. For the same binder, the kon (Human albumin) was 66500 M⁻¹ s⁻¹, the Kd (Cyno IL-17A [20]) was 0.007 nM and the koff (Cyno IL-17A [20]) was 1.24e-05 s⁻¹. For the same binder, the kon (Cyno IL-17A [20]) was 1.65e+06 M⁻¹ s⁻¹, the Kd (Cyno IL-17F [21]) was 0.283 nM and the koff (Cyno IL-17F [21]) was 0.000282 s⁻¹. For the same binder, the kon (Cyno IL-17F [21]) was 1.14e+06 M⁻¹ s⁻¹, the Kd (Cyno IL-17AF) was 0.014 nM and the koff (Cyno IL-17AF) was 2.87e-05 s⁻¹. The kon (Cyno IL-17AF) was 2.25e+06 M⁻¹ s⁻¹, the Kd (Human IL-17A [22]) was 0.009 nM and the koff (Human IL-17A [22]) was 1.57e-05 s⁻¹. The kon (Human IL-17A [22]) was 2.26e+06 M⁻¹ s⁻¹, the Kd (Cyno IL-13) was 0.156 nM and the koff (Cyno IL-13) was 0.000148 s⁻¹. For the same binder, the kon (Cyno IL-13) was 948000 M⁻¹ s⁻¹.
